Read-outs that look alike come from different tables or passages of the source.
Legend:
Assay in all cases: cell-based or functional assay
[1] = biological target: T1, Cathepsin B from bovine spleen (bovine, UniProt P07688 80-332)
[2] = biological target: T1, Cathepsin B from bovine spleen; remark: listed apart in the source
[3] = biological target: T1, Cathepsin B from bovine spleen; remark: listed apart in the source
[4] = biological target: T1, Cathepsin B from bovine spleen; remark: listed apart in the source

| Binder | Cathepsin B inhibition test, 2 mM peptide [3] | Cathepsin B inhibition test, 2 mM peptide [4] | further results |
| --- | --- | --- | --- |
| Ac-PFKISIHL-OH (also: MGO-modified, site not given here) [MGO-modified Ac-PFKISIHL-OH] |  |  | Cathepsin B inhibition test, 2 mM peptide [1]: 28.1 |
| Ac-QNKH-OH (also: MGO-modified, site not given here) [MGO-modified Ac-QNKH-OH] |  |  | Cathepsin B inhibition test, 2 mM peptide [2]: 97.8 |
| Ac-SSKSNNRHNN-OH [Ac-SSKSNNRHNN-OH] | 131 |  |  |
| Ac-SSKSNNRHNNND-OH (also: MGO-modified, site not given here) [MGO-modified Ac-SSKSNNRHNNND-OH] | 110 |  |  |
| Ac-Lys-His-OH [Ac-KH-OH] |  |  | Cathepsin B inhibition test, 2 mM peptide [2]: 230 |
| Ac-SKLH-OH [Ac-SKLH-OH] |  | 146 |  |
| Ac-PFKISIHL-OH [Ac-PFKISIHL-OH] |  |  | Cathepsin B inhibition test, 2 mM peptide [1]: 144 |
| Ac-SSKSNNRHNNND-OH [Ac-SSKSNNRHNNND-OH] | 164 |  |  |
| Ac-QNKHNN-OH (also: MGO-modified, site not given here) [MGO-modified Ac-QNKHNN-OH] |  |  | Cathepsin B inhibition test, 2 mM peptide [2]: 51.3 |
| Ac-SSKS-OH (also: MGO-modified, site not given here) [MGO-modified Ac-SSKS-OH] |  | 107 |  |
| Ac-SSKSNNRH-OH (also: MGO-modified, site not given here) [MGO-modified Ac-SSKSNNRH-OH] | 102 |  |  |
| Ac-SSKSNNRH-OH [Ac-SSKSNNRH-OH] | 125 |  |  |
| Ac-HSSKLH-OH (also: MGO-modified, site not given here) [MGO-modified Ac-HSSKLH-OH] |  | 102 |  |
| Ac-SSKSNNRHNN-OH (also: MGO-modified, site not given here) [MGO-modified Ac-SSKSNNRHNN-OH] | 104 |  |  |
| Ac-SSKSNN-OH [Ac-SSKSNN-OH] | 129 |  |  |
| Ac-SSKS-OH [Ac-SSKS-OH] |  | 119 |  |
| Ac-KISIHL-OH (also: MGO-modified, site not given here) [MGO-modified Ac-KISIHL-OH] |  |  | Cathepsin B inhibition test, 2 mM peptide [1]: 73.2 |
| Ac-SSKSNN-OH (also: MGO-modified, site not given here) [MGO-modified Ac-SSKSNN-OH] | 107 |  |  |
| Ac-HSSK-OH [Ac-HSSK-OH] |  | 165 |  |
| Ac-KHNN-OH [Ac-KHNN-OH] |  |  | Cathepsin B inhibition test, 2 mM peptide [2]: 129 |
| Ac-SKLH-OH (also: MGO-modified, site not given here) [MGO-modified Ac-SKLH-OH] |  | 67.6 |  |
| Ac-QNKHNN-OH [Ac-QNKHNN-OH] |  |  | Cathepsin B inhibition test, 2 mM peptide [2]: 168 |
| Ac-HSSKLH-OH [Ac-HSSKLH-OH] |  | 122 |  |

Reference: patent US20150337019A1 (MANUKAMED HOLDINGS LIMITED PARTNERSHIP, published 2015)
